The experiment concerns the target Urease beta subunit (urea amidohydrolase) (UreB) of H. pylori (H. pylori, UniProt P69996 1-569). In words: crystal structure.

Experimental findings from publication PMC6886524 (Journal of structural and functional genomics, 2015) are described below.

Urease beta subunit (urea amidohydrolase) (UreB) of H. pylori, sequence (P69996 whole entry): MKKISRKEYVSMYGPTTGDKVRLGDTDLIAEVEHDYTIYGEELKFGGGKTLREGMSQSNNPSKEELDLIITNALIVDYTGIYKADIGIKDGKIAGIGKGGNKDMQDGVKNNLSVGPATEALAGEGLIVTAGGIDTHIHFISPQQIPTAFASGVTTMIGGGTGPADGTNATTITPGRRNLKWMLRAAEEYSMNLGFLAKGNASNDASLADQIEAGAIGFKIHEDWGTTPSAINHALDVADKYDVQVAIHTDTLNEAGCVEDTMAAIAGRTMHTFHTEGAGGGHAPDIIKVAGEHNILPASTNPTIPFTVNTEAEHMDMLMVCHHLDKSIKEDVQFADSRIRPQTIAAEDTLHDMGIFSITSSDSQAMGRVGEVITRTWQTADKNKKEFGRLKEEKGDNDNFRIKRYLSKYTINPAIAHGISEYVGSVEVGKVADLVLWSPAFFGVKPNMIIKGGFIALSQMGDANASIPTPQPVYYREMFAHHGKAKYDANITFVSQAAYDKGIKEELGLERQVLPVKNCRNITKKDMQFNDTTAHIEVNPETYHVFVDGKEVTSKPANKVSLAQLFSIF

B1: Urease alpha subunit (UreA) (urea amidohydrolase) of H. pylori (natural protein)
chain: MKLTPKELDKLMLHYAGELAKKRKEKGIKLNYVEAVALISAHIMEEARAGKKTAAELMQEGRTLLKPDDVMDGVASMIHEVGIEAMFPDGTKLVTVHTPIEANGKLVPGELFLKNEDITINEGKKAVSVKVKNVGDRPVQIGSHFHFFEVNRCLDFDREKTFGKRLDIASGTAVRFEPGEEKSVELIDIGGNRRIFGFNALVDRQADNESKKIALHRAKERGFHGAKSDDNYVKTIKE
Turning to B1, the binding result is listed as “binds”.
